Tests used:
Assay in all cases: SPOT array
Bud14, P27637 = target: T1, Bud14, P27637; details: median of control spots 956
T1 sequence (P27637 247-328, looked up): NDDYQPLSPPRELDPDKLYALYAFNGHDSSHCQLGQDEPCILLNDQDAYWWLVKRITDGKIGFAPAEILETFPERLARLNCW

Myo3, P36006 = details: median of control spots 468
Sla1-2, P32790 = target: T2, Sla1-2, P32790; details: median of control spots 712
T2 sequence (P32790 60-140, looked up): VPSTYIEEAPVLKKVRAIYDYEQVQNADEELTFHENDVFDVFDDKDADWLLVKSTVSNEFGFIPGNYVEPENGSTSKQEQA

Sla1-3, P32790 = target: T3, Sla1-3, P32790; details: median of control spots 5475
T3 sequence (P32790 344-424, looked up): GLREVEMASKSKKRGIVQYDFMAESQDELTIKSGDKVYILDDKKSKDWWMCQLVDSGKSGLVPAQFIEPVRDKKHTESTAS

Abp1, P15891 = target: T4, Abp1, P15891; details: median of control spots 935
T4 sequence (P15891 535-592, looked up): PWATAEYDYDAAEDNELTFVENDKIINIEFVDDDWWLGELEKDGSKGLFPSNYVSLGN

Lsb4, P32793 = target: T5, Lsb4, P32793; details: median of control spots 397
T5 sequence (P32793 402-468, looked up): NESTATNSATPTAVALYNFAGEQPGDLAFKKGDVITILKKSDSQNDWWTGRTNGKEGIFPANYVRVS

Lsb1, P53281 = target: T6, Lsb1, P53281; details: median of control spots 388
T6 sequence (P53281 45-122, looked up): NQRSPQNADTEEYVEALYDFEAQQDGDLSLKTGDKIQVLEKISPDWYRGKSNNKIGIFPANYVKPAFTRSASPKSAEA

Hof1, Q05080 = target: T7, Hof1, Q05080; details: median of control spots 4086
T7 sequence (Q05080 590-669, looked up): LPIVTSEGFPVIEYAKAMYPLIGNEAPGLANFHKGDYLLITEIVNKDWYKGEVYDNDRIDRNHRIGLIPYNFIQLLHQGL

Bem1-1, P29366 = details: median of control spots 4282
Bzz1-1, P38822 = target: T8, Bzz1-1, P38822; details: median of control spots 4446
T8 sequence (P38822 478-572, looked up): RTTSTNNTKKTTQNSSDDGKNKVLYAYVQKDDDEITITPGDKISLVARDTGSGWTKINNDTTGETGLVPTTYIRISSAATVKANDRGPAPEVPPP

Cyk3, Q07533 = target: T9, Cyk3, Q07533; details: median of control spots 1451
T9 sequence (Q07533 1-83, looked up): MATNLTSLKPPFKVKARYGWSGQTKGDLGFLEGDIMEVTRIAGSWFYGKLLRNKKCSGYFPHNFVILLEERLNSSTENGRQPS

Hse1, P38753 = target: T10, Hse1, P38753; details: median of control spots 1727
T10 sequence (P38753 208-285, looked up): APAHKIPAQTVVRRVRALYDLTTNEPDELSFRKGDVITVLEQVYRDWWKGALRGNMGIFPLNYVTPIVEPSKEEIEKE

GST = details: median of control spots 978
Bem1-2, P29366 = details: median of control spots 4347
Bzz1-2, P38822 = target: T11, Bzz1-2, P38822; details: median of control spots 4538
T11 sequence (P38822 568-633, looked up): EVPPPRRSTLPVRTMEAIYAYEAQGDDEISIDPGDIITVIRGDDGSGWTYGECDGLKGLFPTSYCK

Sho1, P40073 = details: median of control spots 1148
Cdc25, P04821 = target: T12, Cdc25, P04821; details: median of control spots 969
T12 sequence (P04821 50-136, looked up): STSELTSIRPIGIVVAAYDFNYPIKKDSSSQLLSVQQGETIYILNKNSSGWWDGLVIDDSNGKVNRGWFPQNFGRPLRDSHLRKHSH

Rvs167, P39743 = details: median of control spots 2707
Fus1, P11710 = target: T13, Fus1, P11710; details: median of control spots 1200
T13 sequence (P11710 432-512, looked up): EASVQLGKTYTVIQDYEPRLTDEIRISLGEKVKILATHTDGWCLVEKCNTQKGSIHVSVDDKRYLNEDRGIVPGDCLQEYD

Boi1, P38041 = target: T14, Boi1, P38041; details: median of control spots 1162
T14 sequence (P38041 1-86, looked up): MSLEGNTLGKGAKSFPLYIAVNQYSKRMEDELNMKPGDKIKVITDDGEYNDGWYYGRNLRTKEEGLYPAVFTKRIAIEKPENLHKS

Lsb3, P43603 = target: T15, Lsb3, P43603; details: median of control spots 406
T15 sequence (P43603 385-451, looked up): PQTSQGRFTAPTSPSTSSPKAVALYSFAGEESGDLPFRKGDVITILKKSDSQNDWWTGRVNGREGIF

Myo5, Q04439 = target: T16, Myo5, Q04439; details: median of control spots 471
T16 sequence (Q04439 1072-1160, looked up): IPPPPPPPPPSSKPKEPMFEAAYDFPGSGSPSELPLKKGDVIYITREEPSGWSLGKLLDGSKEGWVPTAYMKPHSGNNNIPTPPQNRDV

Pin3, Q06449 = target: T17, Pin3, Q06449; details: median of control spots 2171
T17 sequence (Q06449 53-122, looked up): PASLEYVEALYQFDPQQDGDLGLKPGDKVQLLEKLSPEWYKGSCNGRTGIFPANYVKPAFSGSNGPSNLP

Nbp2, Q12163 = target: T18, Nbp2, Q12163; details: median of control spots 357
T18 sequence (Q12163 103-180, looked up): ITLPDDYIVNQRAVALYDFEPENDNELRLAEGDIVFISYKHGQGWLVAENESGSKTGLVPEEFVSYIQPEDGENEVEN

Pex13, P80667 = target: T19, Pex13, P80667; details: median of control spots 1341
T19 sequence (P80667 295-386, looked up): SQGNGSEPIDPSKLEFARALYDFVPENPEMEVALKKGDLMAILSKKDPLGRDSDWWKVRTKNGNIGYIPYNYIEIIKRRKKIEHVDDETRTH

Boi2, P39969 = target: T20, Boi2, P39969; details: median of control spots 1161
T20 sequence (P39969 32-116, looked up): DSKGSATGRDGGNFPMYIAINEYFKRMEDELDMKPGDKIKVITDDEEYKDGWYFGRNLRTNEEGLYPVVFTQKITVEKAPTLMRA

Bbc1, P47068 = target: T21, Bbc1, P47068; details: median of control spots 796
T21 sequence (P47068 1-78, looked up): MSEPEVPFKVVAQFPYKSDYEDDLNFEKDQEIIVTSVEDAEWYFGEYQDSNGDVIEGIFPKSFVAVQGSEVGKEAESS

Sequence of Bem1-1, P29366 (P29366 55-141): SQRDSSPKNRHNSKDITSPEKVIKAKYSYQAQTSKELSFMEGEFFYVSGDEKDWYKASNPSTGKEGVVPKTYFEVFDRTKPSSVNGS
Sequence of Sho1, P40073 (P40073 287-367): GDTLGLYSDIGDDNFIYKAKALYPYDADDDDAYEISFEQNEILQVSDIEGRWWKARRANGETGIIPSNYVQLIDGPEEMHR
Sequence of Bem1-2, P29366 (P29366 139-227): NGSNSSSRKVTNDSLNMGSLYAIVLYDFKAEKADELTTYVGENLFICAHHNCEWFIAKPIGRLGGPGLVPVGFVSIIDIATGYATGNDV
Sequence of Rvs167, P39743 (P39743 419-482): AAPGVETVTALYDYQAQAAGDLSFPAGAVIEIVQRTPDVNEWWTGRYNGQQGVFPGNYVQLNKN

Row | Binder | SPOT intensity (Bud14, P27637) | SPOT intensity (Myo3, P36006) | SPOT intensity (Sla1-2, P32790) | SPOT intensity (Sla1-3, P32790) | SPOT intensity (Abp1, P15891) | SPOT intensity (Lsb4, P32793) | SPOT intensity (Lsb1, P53281) | SPOT intensity (Hof1, Q05080) | SPOT intensity (Bem1-1, P29366) | SPOT intensity (Bzz1-1, P38822) | SPOT intensity (Cyk3, Q07533) | SPOT intensity (Hse1, P38753) | SPOT intensity (GST) | SPOT intensity (Bem1-2, P29366) | SPOT intensity (Bzz1-2, P38822) | SPOT intensity (Sho1, P40073) | SPOT intensity (Cdc25, P04821) | SPOT intensity (Rvs167, P39743) | SPOT intensity (Fus1, P11710) | SPOT intensity (Boi1, P38041) | other results
1 | VDFTLPPPPPPPGLD | 0 | 491 | 1 | 0 | 0 | 0 | 0 | 143 | 0 | 1 | 0 | 0 | 0 | 0 | 1 | 0 | 0 | 0 | 0 | 2 | SPOT intensity (Lsb3, P43603): 0; SPOT intensity (Myo5, Q04439): 367; SPOT intensity (Pin3, Q06449): 0; SPOT intensity (Nbp2, Q12163): 0; SPOT intensity (Pex13, P80667): 2; SPOT intensity (Boi2, P39969): 0; SPOT intensity (Bbc1, P47068): 0
2 | DFTLPPPPPPPGLDE | 0 | 345 | 0 | 0 | 0 | 0 | 0 | 6 | 0 | 0 | 0 | 0 | 1 | 1 | 0 | 0 | 0 | 0 | 0 | 0 | SPOT intensity (Lsb3, P43603): 0; SPOT intensity (Myo5, Q04439): 306; SPOT intensity (Pin3, Q06449): 0; SPOT intensity (Nbp2, Q12163): 3; SPOT intensity (Pex13, P80667): 0; SPOT intensity (Boi2, P39969): 0; SPOT intensity (Bbc1, P47068): 0
3 | FTLPPPPPPPGLDEL | 0 | 455 | 0 | 0 | 0 | 0 | 0 | 116 | 0 | 7 | 2 | 0 | 1 | 0 | 0 | 0 | 0 | 0 | 0 | 0 | SPOT intensity (Lsb3, P43603): 0; SPOT intensity (Myo5, Q04439): 234; SPOT intensity (Pin3, Q06449): 0; SPOT intensity (Nbp2, Q12163): 0; SPOT intensity (Pex13, P80667): 13; SPOT intensity (Boi2, P39969): 0; SPOT intensity (Bbc1, P47068): 0
4 | DTFLPPPPPPPSNFE | 0 | 518 | 0 | 0 | 0 | 0 | 0 | 0 | 0 | 3 | 0 | 0 | 0 | 0 | 0 | 0 | 0 | 0 | 0 | 1 | SPOT intensity (Lsb3, P43603): 0; SPOT intensity (Myo5, Q04439): 453; SPOT intensity (Pin3, Q06449): 0; SPOT intensity (Nbp2, Q12163): 0; SPOT intensity (Pex13, P80667): 8; SPOT intensity (Boi2, P39969): 3; SPOT intensity (Bbc1, P47068): 0

Source: publication PMC2756588
